The target in one data set is FUS-ΔZNF (UniProt P35637 1-421+454-526, internal_change). As to the kind of experiment: MST; no significant decrease vs WT; MST: PBS with 0.05% BSA and 0.05% Tween-20, 5 nM Cy5-RNA, temperature not stated; nucleosome pull-down buffer not given. The conditions noted are these: protein: recombinant; tags: GST (pGEX-6p-2); label: 3' Cy5.
Data set [1] deals with FUS P421L (so in the source) (UniProt P35637 1-526, P431L). Put plainly: MST; slightly increased affinity vs WT; MST: PBS with 0.05% BSA and 0.05% Tween-20, 5 nM Cy5-RNA, temperature not stated; nucleosome pull-down buffer not given. The conditions noted are these: protein: recombinant; tags: GST (pGEX-6p-2); label: 3' Cy5.

The results in this text go back to article PMC11162772, “FUS reads histone H3K36me3 to regulate alternative polyadenylation”.

FUS-ΔZNF, sequence (P35637 other isoform, or with tags, fused parts or gaps | mutant): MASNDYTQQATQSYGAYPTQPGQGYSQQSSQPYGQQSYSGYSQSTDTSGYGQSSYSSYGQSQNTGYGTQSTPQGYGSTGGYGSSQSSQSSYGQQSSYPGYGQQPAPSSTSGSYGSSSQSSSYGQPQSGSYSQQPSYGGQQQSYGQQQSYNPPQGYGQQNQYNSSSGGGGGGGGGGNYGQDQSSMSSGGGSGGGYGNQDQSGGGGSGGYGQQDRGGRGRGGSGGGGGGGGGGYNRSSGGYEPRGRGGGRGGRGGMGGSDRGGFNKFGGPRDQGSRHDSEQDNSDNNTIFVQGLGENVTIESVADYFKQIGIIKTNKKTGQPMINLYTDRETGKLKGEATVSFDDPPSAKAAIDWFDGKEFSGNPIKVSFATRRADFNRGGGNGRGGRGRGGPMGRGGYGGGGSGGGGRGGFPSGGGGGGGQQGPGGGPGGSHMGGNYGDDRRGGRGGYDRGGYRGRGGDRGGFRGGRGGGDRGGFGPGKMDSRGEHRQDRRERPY
FUS P421L (so in the source), sequence (P35637 whole entry P431L): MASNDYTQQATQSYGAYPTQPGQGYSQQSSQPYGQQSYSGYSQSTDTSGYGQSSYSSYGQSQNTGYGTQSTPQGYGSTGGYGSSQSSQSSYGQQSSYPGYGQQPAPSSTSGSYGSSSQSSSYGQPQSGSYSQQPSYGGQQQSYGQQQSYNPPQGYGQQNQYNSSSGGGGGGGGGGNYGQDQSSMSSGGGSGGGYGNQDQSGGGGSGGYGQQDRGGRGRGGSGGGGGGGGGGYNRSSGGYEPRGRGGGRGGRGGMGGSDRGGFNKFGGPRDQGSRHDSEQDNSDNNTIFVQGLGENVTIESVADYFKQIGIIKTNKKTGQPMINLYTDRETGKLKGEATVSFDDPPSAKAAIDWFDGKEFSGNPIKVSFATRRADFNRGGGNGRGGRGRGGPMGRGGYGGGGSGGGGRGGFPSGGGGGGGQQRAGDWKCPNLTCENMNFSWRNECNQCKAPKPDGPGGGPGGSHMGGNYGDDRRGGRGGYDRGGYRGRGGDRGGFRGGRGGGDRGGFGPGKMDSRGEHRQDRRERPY

Turning to UUAGGGUUAGGGUUAGGGUUAGGG (ssRNA) [4XUUAGGG-3'Cy5], the binding result with FUS-ΔZNF is recorded as “binds”. As to GGUGGGUGGGUGGGUGGGUG (ssRNA) [5XGGUG-3'Cy5], the binding result (in data set [1]; with FUS-ΔZNF) was “binds” each time.
